Measurements published in patent publication US20260055205A1 (published 2026).

T1: cynomolgus monkey CD3 epsilon (cynomolgus monkey, UniProt Q95LI5 22-117, limits assumed)
T1 construct: also called cyCD3e; cyno CD3
T1 sequence (looked up): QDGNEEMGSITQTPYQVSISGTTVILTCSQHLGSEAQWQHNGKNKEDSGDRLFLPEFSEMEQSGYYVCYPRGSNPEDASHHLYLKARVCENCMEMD


Experiments:
[1] = target: T2, human PSMA-Fc (human, UniProt Q04609 44-750); experiment: Octet
T2 construct: also called Human PSMA-Fc fusion

[2] = target: T2, human PSMA-Fc; experiment: Octet; remark: listed apart in the source
[3] = target: T2, human PSMA-Fc; experiment: Octet, PSMA-Fc
Description: Binding affinity of select PSMA PTE variants was tested by Octet.

[4] = target: T3, human PSMA (human, UniProt Q04609 44-750, limits assumed); experiment: binding screen
T3 construct: also called huPSMA; hPSMA
T3 sequence (Q04609 44-750 limits assumed): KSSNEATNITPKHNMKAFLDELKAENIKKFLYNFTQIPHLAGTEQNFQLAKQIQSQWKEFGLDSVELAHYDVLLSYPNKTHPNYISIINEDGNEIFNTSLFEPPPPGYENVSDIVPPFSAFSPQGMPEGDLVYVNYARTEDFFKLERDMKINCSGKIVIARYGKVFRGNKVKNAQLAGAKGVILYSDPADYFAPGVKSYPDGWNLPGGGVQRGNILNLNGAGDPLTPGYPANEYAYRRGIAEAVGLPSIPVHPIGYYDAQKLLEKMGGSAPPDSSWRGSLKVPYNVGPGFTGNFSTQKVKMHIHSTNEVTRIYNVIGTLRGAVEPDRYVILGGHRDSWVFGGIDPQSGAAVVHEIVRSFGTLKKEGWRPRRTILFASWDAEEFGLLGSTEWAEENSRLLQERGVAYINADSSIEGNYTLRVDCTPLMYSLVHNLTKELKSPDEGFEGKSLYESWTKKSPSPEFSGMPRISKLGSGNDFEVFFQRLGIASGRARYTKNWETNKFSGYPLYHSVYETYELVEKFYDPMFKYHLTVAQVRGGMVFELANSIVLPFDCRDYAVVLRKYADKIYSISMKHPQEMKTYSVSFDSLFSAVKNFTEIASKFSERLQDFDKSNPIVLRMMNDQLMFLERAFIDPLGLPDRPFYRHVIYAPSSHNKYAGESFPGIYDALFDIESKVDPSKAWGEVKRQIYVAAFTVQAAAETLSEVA

[5] = target: T4, cynomolgus monkey PSMA (cynomolgus monkey, UniProt A0A2K5VNZ0 44-750); experiment: BLI or SPR
T4 construct: also called cyPSMA; cyno PSMA

[6] = target: T3, human PSMA; experiment: BLI or SPR
[7] = target: T1, cynomolgus monkey CD3 epsilon; experiment: BLI or SPR
[8] = target: T5, human CD3 epsilon (human, UniProt P07766 23-126, limits assumed); experiment: BLI or SPR
T5 construct: also called huCD3e
T5 sequence (P07766 23-126 limits assumed): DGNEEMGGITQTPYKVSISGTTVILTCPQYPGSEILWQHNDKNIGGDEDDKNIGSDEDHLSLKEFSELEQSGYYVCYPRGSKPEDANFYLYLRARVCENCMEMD

T2 sequence (Q04609 44-750 limits assumed): as the sequence (Q04609 44-750 limits assumed) above

Row | Kd [1] [nM] | Kd [2] [nM] | koff [2] [s⁻¹] | kon [2] [M⁻¹ s⁻¹] | Kd [3] [nM] | koff [3] [s⁻¹] | kon [3] [M⁻¹ s⁻¹] | Binder | further results
1 | 2.4 | 2.4 | 0.00018 | 76000 |  |  |  | uTCE of AC3356 (bispecific antibody, CD3.23 in VH-VL order; also called PSMA.5 (domain swap)) QVQLVESGGGVVQPGRSLRLSCAASGRTFGIYVMGWVRQAPGKEREFVAAISWSGSNRLVSDSVKGRFTISRDNSKNTLYLQMNSLRAEDTAVYYCAASNRLYGRTWYDFNESDYWGQGTQVTVSSGGGGSGGGSEVQLLESGGGIVQPGGSLKLSCAASGFTFNTYAMNWVRQAPGKGLEWVARIRSKYNNYATYYADSVKDRFTISRDDSKNTVYLQMNNLKTEDTAVYYCVRHENFGNSYVSWFAHWGQGTLVTVSSGATPPETGAETESPGETTGGSAESEPPGEGELVVTQEPSLTVSPGGTVTLTCRSSNGAVTSSNYANWVQQKPGQAPRGLIGGTNKRAPGTPARFSGSLLGGKAALTLSGVQPEDEAVYYCALWYPNLWVFGGGTKLTVL | 
2 | 2.7 |  |  |  | 2.7 | 0.00028 | 104000 | uTCE of AC3265 (bispecific antibody, Linker given only as 9 residues; also called PSMA.55) QVQLVESGGGVVQPGRSLRLSCAASGRTFGIYVMGWYRQAPGKEREFVAAISWSGSNRLVSDSVKGRFTISRDNSKNTLYLQMNSLRAEDTAVYYCAASNRLYGRTWYDFNESDYWGQGTQVTVSSGGGGSGGGSELVVTQEPSLTVSPGGTVTLTCRSSNGAVTSSNYANWVQQKPGQAPRGLIGGTNKRAPGTPARFSGSLLGGKAALTLSGVQPEDEAVYYCALWYPNLWVFGGGTKLTVLGATPPETGAETESPGETTGGSAESEPPGEGEVQLLESGGGIVQPGGSLKLSCAASGFTFNTYAMNWVRQAPGKGLEWVARIRSKYNNYATYYADSVKDRFTISRDDSKNTVYLQMNNLKTEDTAVYYCVRHENFGNSYVSWFAHWGQGTLVTVSS | 
3 | 3.2 |  |  |  | 3.2 | 0.000248 | 80000 | uTCE of AC3329 (bispecific antibody, also called PSMA.119) QVQLVESGGGVVQPGRSLRLSCAASGRTFGIYVMGWVRQAPGKEREFVAAISWSGSNRKVSDSVKGRFTISRDNSKNTLYLQMNSLRAEDTAVYYCAASNRLYGRTWYDFNESDYWGQGTQVTVSSGGGGSGGGSELVVTQEPSLTVSPGGTVTLTCRSSNGAVTSSNYANWVQQKPGQAPRGLIGGTNKRAPGTPARFSGSLLGGKAALTLSGVQPEDEAVYYCALWYPNLWVFGGGTKLTVLGATPPETGAETESPGETTGGSAESEPPGEGEVQLLESGGGIVQPGGSLKLSCAASGFTFNTYAMNWVRQAPGKGLEWVARIRSKYNNYATYYADSVKDRFTISRDDSKNTVYLQMNNLKTEDTAVYYCVRHENFGNSYVSWFAHWGQGTLVTVSS | Kd [4]: 4.1 nM
4 | 5.6 |  |  |  | 5.6 | 0.000479 | 86600 | uTCE of AC3342 (bispecific antibody, Linker given only as 9 residues; also called PSMA.132) QVQLVESGGGVVQPGRSLRLSCAASGRTFGIYVMGWVRQAPGKEREFVAAISWSGSNRLVSDSVKGRFTISRDNSKNTLYLQMNSLRAEDTAVYYCAASNKLYGRTWYDFNESDYWGQGTQVTVSSGGGGSGGGSELVVTQEPSLTVSPGGTVTLTCRSSNGAVTSSNYANWVQQKPGQAPRGLIGGTNKRAPGTPARFSGSLLGGKAALTLSGVQPEDEAVYYCALWYPNLWVFGGGTKLTVLGATPPETGAETESPGETTGGSAESEPPGEGEVQLLESGGGIVQPGGSLKLSCAASGFTFNTYAMNWVRQAPGKGLEWVARIRSKYNNYATYYADSVKDRFTISRDDSKNTVYLQMNNLKTEDTAVYYCVRHENFGNSYVSWFAHWGQGTLVTVSS | 
5 | 3.5 | 3.5 | 0.00027 | 77000 |  |  |  | uTCE of AC3354 (bispecific antibody, also called PSMA.5 (15 mer)) QVQLVESGGGVVQPGRSLRLSCAASGRTFGIYVMGWVRQAPGKEREFVAAISWSGSNRLVSDSVKGRFTISRDNSKNTLYLQMNSLRAEDTAVYYCAASNRLYGRTWYDFNESDYWGQGTQVTVSSGATPPETGAETESPGELVVTQEPSLTVSPGGTVTLTCRSSNGAVTSSNYANWVQQKPGQAPRGLIGGTNKRAPGTPARFSGSLLGGKAALTLSGVQPEDEAVYYCALWYPNLWVFGGGTKLTVLGATPPETGAETESPGETTGGSAESEPPGEGEVQLLESGGGIVQPGGSLKLSCAASGFTFNTYAMNWVRQAPGKGLEWVARIRSKYNNYATYYADSVKDRFTISRDDSKNTVYLQMNNLKTEDTAVYYCVRHENFGNSYVSWFAHWGQGTLVTVSS | 
6 |  |  |  |  |  |  |  | AMX-500(1x-C) (bispecific antibody, Lacks the mask linked to the PSMA domain) GTSESATPESQVQLVESGGGVVQPGRSLRLSCAASGRTFGIYVWGWFRQAPGKEREFVGAMSWSGSNRKVSDSVKGRFTISRDNSKNTLYLQMNSLRAEDTAVYYCAASNKEYGRTWYDFNESDYWGQGTQVTVSSGGGGSGGGSELVVTQEPSLTVSPGGTVTLTCRSSNGAVTSSNYANWVQQKPGQAPRGLIGGTNKRAPGTPARFSGSLLGGKAALTLSGVQPEDEAVYYCALWYPNLWVFGGGTKLTVLSESATPESGPGTSPGATPESGPGTSESATPEVQLVESGGGIVQPGGSLRLSCAASGFTFSTYAMNWVRQAPGKGLEWVGRIRTKRNNYATYYADSVKGRFTISRDDSKNTVYLQMNSLKTEDTAVYYCVRHENFGNSYVSWFAHWGQGTLVTVSSGTATPESGPGEAGRSASHTPAGLTGPATPESGPGTSESATPESGPGSPAGSPTSTEEGTSESATPESGPGSEPATSGSETPGTSESATPESGPGTSTEPSEGSAPGTSTEPSEGSAPGTSTEPSEGSAPGTSTEPSEGSAPGTSTEPSEGSAPGTSTEPSEGSAPGSPAGSPTSTEEGTSTEPSEGSAPGTSESATPESGPGSEPATSGSETPGTSESATPESGPGSEPATSGSETPGTSESATPESGPGTSTEPSEGSAPGTSESATPESGPGSPAGSPTSTEEGSPAGSPTSTEEGSPAGSPTSTEEGTSESATPESGPGTSTEPSEGSAPGTSESATPESGPGSEPATSGSETPGTSESATPESGPGSEPATSGSETPGTSESATPESGPGTSTEPSEGSAPGSPAGSPTSTEEGTSESATPESGPGSEPATSGSETPGTSESATPESGPGSPAGSPTSTEEGSPAGSPTSTEEGTSTEPSEGSAPGTSESATPESGPGTSESATPESGPGTSPSATPESGPGSEPATSGSETPGSEPATSGSETPGSPAGSPTSTEEGTSTEPSEGSAPGTSTEPSEGSAPGSEPATSGSETPGTSESAGEPEA | Kd [5]: 2900 nM; koff [5]: 0.039 s⁻¹; kon [5]: 14000 M⁻¹ s⁻¹; Kd [6]: 353 nM; koff [6]: 0.012 s⁻¹; kon [6]: 35000 M⁻¹ s⁻¹; Kd [7]: 26.7 nM; koff [7]: 0.1 s⁻¹; kon [7]: 3.4e+06 M⁻¹ s⁻¹; Kd [8]: 34.4 nM; koff [8]: 0.1 s⁻¹; kon [8]: 3.2e+06 M⁻¹ s⁻¹
7 | 2.1 | 2.1 | 0.00022 | 110000 |  |  |  | uTCE of AC3353 (bispecific antibody, also called PSMA.5 (5 mer)) QVQLVESGGGVVQPGRSLRLSCAASGRTFGIYVMGWVRQAPGKEREFVAAISWSGSNRLVSDSVKGRFTISRDNSKNTLYLQMNSLRAEDTAVYYCAASNRLYGRTWYDFNESDYWGQGTQVTVSSGGGGSELVVTQEPSLTVSPGGTVTLTCRSSNGAVTSSNYANWVQQKPGQAPRGLIGGTNKRAPGTPARFSGSLLGGKAALTLSGVQPEDEAVYYCALWYPNLWVFGGGTKLTVLGATPPETGAETESPGETTGGSAESEPPGEGEVQLLESGGGIVQPGGSLKLSCAASGFTFNTYAMNWVRQAPGKGLEWVARIRSKYNNYATYYADSVKDRFTISRDDSKNTVYLQMNNLKTEDTAVYYCVRHENFGNSYVSWFAHWGQGTLVTVSS | 
